Test results taken from paper PMC6771230.

Tested on: YB-1
Assay: EMSA
Settings: serial-diluted protein; RNA-EMSA in Thermo Scientific kit binding buffer, 6% polyacrylamide gel; salt, pH and temperature not stated

H19 RNA fragment 661-745 (85 nt)
Kd: 7.4 µM
